Measurements: patent US20080267989A1

Legend:
[1] = target: 2F5 (broadly neutralizing human monoclonal antibody to the gp41 MPR); assay: cell-based or functional assay
[2] = target: 2F5 (broadly neutralizing human monoclonal antibody to the gp41 MPR); assay: competition ELISA, peptide serially diluted with 1 ug/ml 2F5 on NE3-captured HBsAg-MPR particles

| Molecule | neutralization activity of 2F5 adsorbed out, SF162.LS virus (TZM-B1 cells, luciferase) [1] | neutralization activity of 2F5 adsorbed out, YU2.5G3 virus (TZM-B1 cells, luciferase) [1] | fold enhancement of 2F5 binding to HBsAg-MPR particle [2] |
| --- | --- | --- | --- |
| HBsAg-MPR particles (HBsAg with the HIV-1 gp41 membrane proximal region at the C-terminus) | 21% | 10% | – |
| NEQELLELDKWASLWN [16-mer peptide harboring the 2F5 epitope (…)] | – | – | 2 fold |
